Data as given in patent US20210087281A1 (AGOMAB THERAPEUTICS, published 2021).

Columns and labels:
[1] = target: T1, native human MET on living cells (human, UniProt P08581 25-1390); test: cell-based or functional assay
[2] = target: T2, native mouse MET on living cells (mouse, UniProt P16056 25-1379); test: cell-based or functional assay
[3] = target: T3, mouse MET-Fc (R&D Systems) (mouse, UniProt P16056 25-929, limits assumed); test: competition ELISA, mMET-Fc in solid phase, competitor 0.3 nM biotinylated mHGF
T3 construct: bought chimeric protein; also called mMET; not shown: Fc part
Procedure: (§1) To investigate along this line, we tested the competition between mAbs and HGF by ELISA. Recombinant human and mouse HGF (R&D Systems) were biotinylated at the N-terminus using NHS-LC-biotin (Thermo Scientific). MET-Fc protein, either human or mouse (R&D Systems), was immobilized in solid phase and then exposed to 0.3 nM biotinylated HGF, either human or mouse, in the presence of increasing concentrations of antibodies (0-120 nM).
(§2) A MET-Fc chimeric protein (either human or mouse) was immobilized in solid phase and exposed to a fixed concentration of biotinylated HGF (either human or mouse), in the presence of increasing concentrations of antibodies. […] Antibody-HGF competition is expressed as IC₅₀ (the concentration that achieves 50% competition) and IMAX (the maximum % competition reached at saturation).

[4] = target: T1, native human MET on living cells; test: cell-based or functional assay; remark: listed apart in the source
[5] = target: T2, native mouse MET on living cells; test: cell-based or functional assay; remark: listed apart in the source
[6] = target: T4, human MET-Fc (R&D Systems) (human, UniProt P08581 25-932); test: competition ELISA, hMET-Fc in solid phase, competitor 0.3 nM biotinylated hHGF
T4 construct: extracellular domain; bought chimeric protein; also called hMET; not shown: Fc portion of human IgG1
T4 sequence (P08581 25-932): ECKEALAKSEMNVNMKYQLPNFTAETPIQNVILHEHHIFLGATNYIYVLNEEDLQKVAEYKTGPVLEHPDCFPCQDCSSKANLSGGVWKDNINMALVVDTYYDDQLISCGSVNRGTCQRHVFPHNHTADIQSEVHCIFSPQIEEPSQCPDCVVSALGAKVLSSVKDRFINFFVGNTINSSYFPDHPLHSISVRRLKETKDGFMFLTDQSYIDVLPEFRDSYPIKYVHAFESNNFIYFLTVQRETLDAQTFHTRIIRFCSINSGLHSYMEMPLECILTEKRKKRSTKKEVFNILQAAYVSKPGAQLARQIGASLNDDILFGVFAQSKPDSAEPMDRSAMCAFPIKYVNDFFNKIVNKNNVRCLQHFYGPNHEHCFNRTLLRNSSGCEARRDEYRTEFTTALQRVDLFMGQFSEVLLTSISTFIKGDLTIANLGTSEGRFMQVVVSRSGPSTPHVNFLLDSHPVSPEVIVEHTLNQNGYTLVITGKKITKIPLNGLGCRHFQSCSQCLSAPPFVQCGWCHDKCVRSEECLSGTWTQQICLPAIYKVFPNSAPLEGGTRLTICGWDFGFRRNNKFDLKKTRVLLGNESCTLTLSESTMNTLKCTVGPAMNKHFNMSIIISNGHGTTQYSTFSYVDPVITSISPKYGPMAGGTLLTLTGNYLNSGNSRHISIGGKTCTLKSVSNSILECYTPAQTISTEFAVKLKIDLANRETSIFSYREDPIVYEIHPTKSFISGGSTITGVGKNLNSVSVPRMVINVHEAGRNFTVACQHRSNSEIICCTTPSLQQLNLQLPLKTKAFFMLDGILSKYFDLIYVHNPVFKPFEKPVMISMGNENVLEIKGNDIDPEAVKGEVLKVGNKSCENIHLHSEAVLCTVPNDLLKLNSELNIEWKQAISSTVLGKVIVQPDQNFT
Procedure: as §1, §2

[7] = target: T2, native mouse MET on living cells; test: flow cytometry, MLP29 cells
Procedure: (§3) We also analysed whether chimeric anti-MET antibodies bound to native human and mouse MET in living cells. […] Antibody binding to cells was analysed by flow cytometry using phycoerythrin-conjugated anti-human IgG1 antibodies (eBioscience) and a CyAn ADP analyser (Beckman Coulter). As a positive control for human MET binding, we used a commercial mouse anti-human MET antibody (R&D Systems) and phycoerythrin-conjugated anti-mouse IgG1 antibodies (eBioscience).
(§4) As a positive control for mouse MET binding we used a commercial goat anti-mouse MET antibody (R&D Systems) and phycoerythrin-conjugated anti-goat IgG1 antibodies (eBioscience). […] Consistent with the data obtained in ELISA, maximal binding (EMAX) varied depending on antibody, but was similar in human and mouse cells.

[8] = target: T1, native human MET on living cells; test: cell-based or functional assay; remark: listed apart in the source
[9] = target: T2, native mouse MET on living cells; test: cell-based or functional assay; remark: listed apart in the source
human MET ECD = target: T5, human MET ECD (human, UniProt P08581 25-932); test: ELISA, MET ECD in solid phase, mAb 0-20 nM
T5 construct: range 1-932; recombinant ECD made by the applicants; the stated range begins at residue 1, so it includes the signal peptide of the entry; also called hMET; hMET ECD
T5 sequence (P08581 25-932 limits assumed, form in doubt): as the sequence (P08581 25-932) above
Procedure: (§5) Production (by transient transfection of mammalian cells) and purification (by protein A affinity chromatography) of the resulting chimeric llama-human IgG1 molecules was outsourced to U-protein Express. Binding of chimeric mAbs to MET was determined by ELISA using hMET or mMET ECD in solid phase and increasing concentrations of antibodies (0-20 nM) in solution. […] Binding capacity (EMAX) varied from antibody to antibody, possibly due to partial epitope exposure in the immobilized antigen, but was similar in the human and mouse setting.

mouse MET ECD = target: T6, mouse MET ECD (mouse, UniProt P16056 25-931); test: ELISA, MET ECD in solid phase, mAb 0-20 nM
T6 construct: range 1-931; recombinant ECD made by the applicants; the stated range begins at residue 1; also called mMET; mMET ECD
Procedure: as §5

[10] = target: T1, native human MET on living cells; test: cell-based or functional assay; remark: listed apart in the source
[11] = target: T2, native mouse MET on living cells; test: cell-based or functional assay; remark: listed apart in the source
[12] = target: T1, native human MET on living cells; test: flow cytometry, A549 cells
Procedure: as §3, §4

T1 sequence (P08581 25-1390): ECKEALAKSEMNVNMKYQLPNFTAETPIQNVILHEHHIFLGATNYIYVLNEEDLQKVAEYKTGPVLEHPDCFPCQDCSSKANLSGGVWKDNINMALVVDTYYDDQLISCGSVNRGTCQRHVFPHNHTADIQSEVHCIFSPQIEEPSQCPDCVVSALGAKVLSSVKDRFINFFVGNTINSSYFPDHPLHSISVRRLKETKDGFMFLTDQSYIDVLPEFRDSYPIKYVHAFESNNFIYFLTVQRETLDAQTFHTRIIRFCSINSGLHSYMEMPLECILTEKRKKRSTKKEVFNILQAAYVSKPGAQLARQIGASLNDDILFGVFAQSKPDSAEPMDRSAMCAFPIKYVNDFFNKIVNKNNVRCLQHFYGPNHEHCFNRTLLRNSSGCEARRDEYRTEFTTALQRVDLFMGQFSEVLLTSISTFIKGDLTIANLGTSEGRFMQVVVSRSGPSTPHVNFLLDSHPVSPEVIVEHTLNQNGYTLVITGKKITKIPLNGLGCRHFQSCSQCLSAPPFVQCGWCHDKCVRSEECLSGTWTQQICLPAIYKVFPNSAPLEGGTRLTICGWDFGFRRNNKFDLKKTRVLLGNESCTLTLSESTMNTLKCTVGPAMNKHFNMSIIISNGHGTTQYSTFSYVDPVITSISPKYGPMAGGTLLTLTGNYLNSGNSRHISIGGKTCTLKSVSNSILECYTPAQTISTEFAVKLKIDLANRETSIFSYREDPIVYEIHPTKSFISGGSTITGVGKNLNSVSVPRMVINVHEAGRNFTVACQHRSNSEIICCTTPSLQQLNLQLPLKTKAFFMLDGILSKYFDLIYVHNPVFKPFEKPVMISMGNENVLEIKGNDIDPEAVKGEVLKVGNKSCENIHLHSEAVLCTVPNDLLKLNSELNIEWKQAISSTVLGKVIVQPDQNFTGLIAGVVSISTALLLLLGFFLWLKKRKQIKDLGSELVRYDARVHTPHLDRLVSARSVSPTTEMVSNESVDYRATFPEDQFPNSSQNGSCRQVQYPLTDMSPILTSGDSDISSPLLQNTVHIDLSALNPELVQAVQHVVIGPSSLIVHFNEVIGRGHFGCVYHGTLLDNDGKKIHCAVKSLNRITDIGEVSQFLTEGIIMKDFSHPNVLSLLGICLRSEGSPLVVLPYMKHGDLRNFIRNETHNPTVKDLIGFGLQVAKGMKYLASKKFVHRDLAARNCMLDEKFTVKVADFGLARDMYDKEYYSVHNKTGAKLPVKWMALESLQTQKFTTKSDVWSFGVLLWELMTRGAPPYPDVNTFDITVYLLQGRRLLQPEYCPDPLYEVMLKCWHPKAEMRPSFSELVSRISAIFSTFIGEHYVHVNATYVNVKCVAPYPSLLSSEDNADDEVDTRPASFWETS

B1: 76G7 chimeric llama-human IgG1 mAb (antibody, V domains shown)
VH: QVQLVESGGNLVQPGGSLRLSCAASGFTFSNYYMSWVRQAPGKGLEWVSDIYSDGSTTWYSDSVKGRFTISRDNAKNTLSLQMNSLKSEDTAVYYCARVKIYPGGYDAWGQGTQVTVSS
VL: QAGLTQPPSVSGSPGKTVTISCAGNSSDVGYGNYVSWYQQFPGMAPKLLIYLVNKRASGITDRFSGSKSGNTASLTISGLQSEDEADYYCASYTGSNNIVFGGGTHLTVL
notes: llama VH on human IgG1 CH1-CH2-CH3, llama VL on human lambda CL
protection from staurosporine, viability EC50, MCF10A cells [1]: 25.4 nM
protection from staurosporine, viability EMAX, MCF10A cells [1]: 51.9%
protection from staurosporine, viability EC50, MLP29 cells [2]: 30.1 nM
protection from staurosporine, viability EMAX, MLP29 cells [2]: 50.2%
IC50 [3]: 1.56 nM
IMAX [3]: 62.5%
phospho-MET ELISA EC50, A549 cells [4]: 1.86 nM
phospho-MET ELISA EMAX (% HGF activity), A549 cells [4]: 62.3%
phospho-MET ELISA EC50, MLP29 cells [5]: 1.19 nM
phospho-MET ELISA EMAX (% HGF activity), MLP29 cells [5]: 71.5%
IC50 [6]: 1.47 nM
IMAX [6]: 69.4%
EC50 [7]: 2.37 nM
EMAX [7]: 115 % relative to control
scatter score 0-4, HPAF-II, 0.001 nM [8]: 0 score
scatter score 0-4, HPAF-II, 0.004 nM [8]: 0 score
scatter score 0-4, HPAF-II, 0.012 nM [8]: 0 score
scatter score 0-4, HPAF-II, 0.037 nM [8]: 0 score
scatter score 0-4, HPAF-II, 0.111 nM [8]: 0 score
scatter score 0-4, HPAF-II, 0.333 nM [8]: 0 score
scatter score 0-4, HPAF-II, 1.000 nM [8]: 1 score
scatter score 0-4, HPAF-II, 3.000 nM [8]: 2 score
scatter score 0-4, HPAF-II, 9.000 nM [8]: 3 score
scatter score 0-4, MLP29, 0.001 nM [9]: 0 score
scatter score 0-4, MLP29, 0.004 nM [9]: 0 score
scatter score 0-4, MLP29, 0.012 nM [9]: 0 score
scatter score 0-4, MLP29, 0.037 nM [9]: 0 score
scatter score 0-4, MLP29, 0.111 nM [9]: 0 score
scatter score 0-4, MLP29, 0.333 nM [9]: 0 score
scatter score 0-4, MLP29, 1.000 nM [9]: 1 score
scatter score 0-4, MLP29, 3.000 nM [9]: 2 score
scatter score 0-4, MLP29, 9.000 nM [9]: 3 score
EC50 (human MET ECD): 0.128 nM
EMAX (OD450) (human MET ECD): 2.62 AU
EC50 (mouse MET ECD): 0.103 nM
EMAX (OD450) (mouse MET ECD): 2.78 AU
branches per spheroid, LOC cells, 0.5 nM [10]: 6.7 branches
branches per spheroid, LOC cells, 2.5 nM [10]: 13.3 branches
branches per spheroid, LOC cells, 12.5 nM [10]: 16.3 branches
branches per spheroid, MLP29 cells, 0.5 nM [11]: 14.7 branches
branches per spheroid, MLP29 cells, 2.5 nM [11]: 18.7 branches
branches per spheroid, MLP29 cells, 12.5 nM [11]: 24.7 branches
EC50 [12]: 2.3 nM
EMAX [12]: 121 % relative to control
